Results from US20240124608A1 (Johns Hopkins, published 2024).

Assays:
[1] = molecular target: TRBC1 polypeptide (form not stated, target of the affinity printed for scFv C1) (UniProt P01850 1-149, limits assumed); assay: not stated; column head 'Affinity' in the table of scFv sequences
[2] = molecular target: T1, TRBC2 (T cell receptor β chain constant region 2) on HPB-ALL cells (human, UniProt A0A5B9 1-178); assay: flow cytometry on HPB-ALL cells (express TRBC2)
T1 construct: whole, on cells; This is the constant region of the TCR β chain carried by the cell's own rearranged TCR; also called TRBC2 polypeptide
T1 sequence (A0A5B9 whole entry): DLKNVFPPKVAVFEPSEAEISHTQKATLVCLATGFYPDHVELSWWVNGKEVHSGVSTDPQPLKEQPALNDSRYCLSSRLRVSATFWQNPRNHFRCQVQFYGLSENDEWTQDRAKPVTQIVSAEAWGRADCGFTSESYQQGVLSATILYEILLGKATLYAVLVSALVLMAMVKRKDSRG

[3] = molecular target: T2, TRBC1 (T cell receptor β chain constant region 1) on Jurkat cells and TRBC1^+ healthy human T cells (human, UniProt P01850 1-176); assay: flow cytometry on Jurkat cells and healthy human T cells
T2 construct: whole, on cells; This is the constant region of the TCR β chain carried by the cell's own rearranged TCR; The rest of the TCR is not specified; also called TRBC1 polypeptide
T2 sequence (P01850 whole entry): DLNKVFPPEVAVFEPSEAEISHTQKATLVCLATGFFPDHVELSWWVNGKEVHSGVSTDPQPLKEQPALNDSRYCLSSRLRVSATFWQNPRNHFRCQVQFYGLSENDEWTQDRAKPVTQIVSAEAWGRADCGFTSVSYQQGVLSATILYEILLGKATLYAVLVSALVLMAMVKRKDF

[4] = molecular target: CD3 polypeptide (form not stated, target of the affinity printed for scFv UCHT1.v9) (UniProt P07766 23-126); assay: not stated; column head 'Affinity' in the table of scFv sequences
Chain of CD3 polypeptide (form not stated, target of the affinity printed for scFv UCHT1.v9) (P07766 23-126): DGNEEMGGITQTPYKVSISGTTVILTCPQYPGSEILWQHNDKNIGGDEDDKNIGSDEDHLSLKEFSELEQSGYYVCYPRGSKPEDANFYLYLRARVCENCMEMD

Chain of TRBC1 polypeptide (form not stated, target of the affinity printed for scFv C1) (P01850 1-149 limits assumed): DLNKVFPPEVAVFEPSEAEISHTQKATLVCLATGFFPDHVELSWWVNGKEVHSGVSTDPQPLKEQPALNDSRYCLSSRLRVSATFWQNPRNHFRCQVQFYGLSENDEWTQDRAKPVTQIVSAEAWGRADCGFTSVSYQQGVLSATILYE

B1: anti-TRBC1 scFv C1 (Jovi-1) (scFv, V domains shown)
VH: EVRLQQSGPDLIKPGASVKMSCKASGYTFTGYVMHWVKQRPGQGLEWIGFINPYNDDIQSNERFRGKATLTSDKSSTTAYMELSSLTSEDSAVYYCARGAGYNFDGAYRFFDFWGQGTTLTVSS
VL: DVVMTQSPLSLPVSLGDQASISCRSSQRLVHSNGNTYLHWYLQKPGQSPKLLIYRVSNRFPGVPDRFSGSGSGTDFTLKISRVEAEDLGIYFCSQSTHVPYTFGGGTKLEIKR
notes: also called αTRBC1 scFv
- Kd [1]: 0.4 nM

B2: TRBC1-TRBC1 #4 bispecific antibody (bispecific antibody, V domains shown)
VH: EVRLQQSGPDLIKPGASVKMSCKASGYTFTGYVMHWVKQRPGQGLEWIGFINPYNDDIQSNERFRGKATLTSDKSSTTAYMELSSLTSEDSAVYYCARGAGYNFDGAYRFFDFWGQGTTLTVSS
VL: DVVMTQSPLSLPVSLGDQASISCRSSQRLVHSNGNTYLHWYLQKPGQSPKLLIYRVSNRFPGVPDRFSGSGSGTDFTLKISRVEAEDLGIYFCSQSTHVPYTFGGGTKLEIKR
notes: A single polypeptide made by linking two anti-TRBC1 scFvs, with G4S and (G4S)3 linkers and a poly-histidine tail; also called anti-C1 #4
- binding result [2]: no binding

B3: TRBC1-TRBC1 #3 bispecific antibody (bispecific antibody, V domains shown)
VH: EVRLQQSGPDLIKPGASVKMSCKASGYTFTGYVMHWVKQRPGQGLEWIGFINPYNDDIQSNERFRGKATLTSDKSSTTAYMELSSLTSEDSAVYYCARGAGYNFDGAYRFFDFWGQGTTLTVSS
VL: DVVMTQSPLSLPVSLGDQASISCRSSQRLVHSNGNTYLHWYLQKPGQSPKLLIYRVSNRFPGVPDRFSGSGSGTDFTLKISRVEAEDLGIYFCSQSTHVPYTFGGGTKLEIKR
notes: A single polypeptide made by linking two anti-TRBC1 scFvs, with G4S and (G4S)3 linkers and a poly-histidine tail; also called anti-C1 #3
- binding result [2]: no binding

B4: TRBC1-CD3 bispecific antibody (bispecific antibody, V domains shown)
VL 1: DVVMTQSPLSLPVSLGDQASISCRSSQRLVHSNGNTYLHWYLQKPGQSPKLLIYRVSNRFPGVPDRFSGSGSGTDFTLKISRVEAEDLGIYFCSQSTHVPYTFGGGTKLEIKR
VH 1: EVRLQQSGPDLIKPGASVKMSCKASGYTFTGYVMHWVKQRPGQGLEWIGFINPYNDDIQSNERFRGKATLTSDKSSTTAYMELSSLTSEDSAVYYCARGAGYNFDGAYRFFDFWGQGTTLTVSS
VL 2: DIQMTQSPSSLSASVGDRVTITCRASQDIRNYLNWYQQKPGKAPKLLIYYTSRLESGVPSRFSGSGSGTDYTLTISSLQPEDFATYYCQQGNTLPWTFGQGTKVEIK
VH 2: EVQLVESGGGLVQPGGSLRLSCAASGYSFTGYTMNWVRQAPGKGLEWVALINPYKGVSTYNQKFKDRFTISVDKSKNTAYLQMNSLRAEDTAVYYCARSGYYGDSDWYFDVWGQGTLVTVSS
notes: It was nickel purified, so a His tag is implied; also called αC1-CD3; anti-C1-CD3
- binding result [3]: binds

B5: anti-CD3 scFv UCHT1.v9 (scFv, V domains shown)
VH: EVQLVESGGGLVQPGGSLRLSCAASGYSFTGYTMNWVRQAPGKGLEWVALINPYKGVSTYNQKFKDRFTISVDKSKNTAYLQMNSLRAEDTAVYYCARSGYYGDSDWYFDVWGQGTLVTVSS
VL: DIQMTQSPSSLSASVGDRVTITCRASQDIRNYLNWYQQKPGKAPKLLIYYTSRLESGVPSRFSGSGSGTDYTLTISSLQPEDFATYYCQQGNTLPWTFGQGTKVEIK
notes: also called αCD3 scFv
- Kd [4]: 4.7 nM
